# Data taken from the nanobody polyreactivity screen of Harvey et al. (2022).
# Test: yeast display, Sf9 membrane polyspecificity reagent, FACS + sequencing; frameworks hold sequencing errors
# Outline: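 After 36–48 hours of galactose induction, yeast (Saccharomyces cerevisiae BJ5465) displaying a synthetic nanobody library were stained at 4 °C for 1 hour with 10% biotinylated, detergent-solubilized Sf9 membrane reagent. Streptavidin microbeads enriched the stained cells before FACS sorting into low and high (top ~1%) gates on anti-HA and streptavidin fluorescence. Each clone's polyreactivity label reflects its gate of origin.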
row,Sequence,polyreactivity (PSR sort gate)
1,QVQLVESGGGLVQAGGSLRLSCAASGSIFPRNAMGWSRQAPGKERELVARINSGGTTKYADSVKGRFTISRDNAKNTVYLQMNSLKPEDTAVYYCNADTYILDPLRKSYGYDYWGQGTQVTVSS,low polyreactivity
2,QVQLVESGGGLVQAGGSLRLSCAASGSIFPRNAMGWYRQAPGKERELVAAITVSDGRTYYADSVKGRFTISRDNAKNTVYLQMNSLKPEDTAVYYCAAGYTYYSLYGYWGQGTQVTVSS,low polyreactivity
3,QVQLVESGGGLVQAGGSLRLSCAASGSIFPRYAMGWYRQAPGKERELVATISQSGGSTYYADSVKGRFTISRDSAKNTVYLQMNSLKPEDTAVYYCAAKVYRSAYYVGKYYPYYYWGQGTQVTVSS,high polyreactivity
4,QVQLVESGGGLVQAGGSLRLSCAASGSIFPSNAMGWYRQAPGKERELVAAISSSGGRTYYADSVKGRFTISRDNAKNTVYLQMNSLKPEDTAVYYCAAKYTVYGVGYYYWGQGTQVTVSS,high polyreactivity
5,QVQLVESGGGLVQAGGSLRLSCAASGSIFPSNAMGWYRQAPGKERELVAAISWSGDITYYADSVKGRFTISRDNAKNTVYLQMNSLKPEDTAVYYCAADTPIAGYWYNYWGQGTQVTVSS,low polyreactivity
6,QVQLVESGGGLVQAGGSLRLSCAASGSIFPSYAMGWYRQAPGKERELVAAISSGGTTNYADSVKGRFTISLDNAKNTVYLQMNSLKPEDTAVYYCAAVRGDSEDRYDHWGQGTQVTVSS,high polyreactivity
7,QVQLVESGGGLVQAGGSLRLSCAASGSIFPSYAMGWYRQAPGKERELVAAISSRGGSTYYADSVKGRFTISRDNAKNTVYLQMNSLKPEDTAVYYCAADWSYYRRHFDYWGQGTQVTVSS,high polyreactivity
8,QVQLVESGGGLVQAGGSLRLSCAASGSIFPSYAMGWYRQAPGKERELVAAISTWNDGGTYYADSVKGRFTISRDNGKNTVYLQMNSLKPEDTAVYYCAADSPKYYYDYDYWGQGTQVTVSS,low polyreactivity
9,QVQLVESGGGLVQAGGSLRLSCAASGSIFPTNAMGWYRQAPGKERELVAAITSGGGTNYADSVMGRFTISRDNAKNTVYLQMNSLKTEDTAVYYCAADRYVEYGYWGQGTQVTVSS,low polyreactivity
10,QVQLVESGGGLVQAGGSLRLSCAASGSIFPVYAMGWYRQAPGKERELVAAINSSGGTTYYADSVKGRFSNSRDNAKNTVYLQMNSLKPEDTAVYYCAAEICTSSYLAKTYDYWGQGTQVTVSS,low polyreactivity
11,QVQLVESGGGLVQAGGSLRLSCAASGSIFPYNAMGWYRQAPGKEMELVATISSGGSTNYADSVKGRFTISRDNAKNTVYLQMNSLKPEDTAVYYCAADVIVFYYAPNYWGDIEYGYWGQGTQVTVSS,low polyreactivity
12,QVQLVESGGGLVQAGGSLRLSCAASGSIFPYNAMGWYRQAPGKERELVAAISKRGGSTYYADSVKGRFTISRDNAKNTVYFQMNSLKPEDTAVYYCAARYPPYRSWYSYDYWGQGTQVTVSS,low polyreactivity
13,QVQLVESGGGLVQAGGSLRLSCAASGSIFPYNAMGWYRQAPGKERELVATINSRGGRTYYADSVKGRFTISRDNAKNTVYLQMNSLKPEDTAVYYCARYYSSALRYGYWGQGTQVTVSS,low polyreactivity
14,QVQLVESGGGLVQAGGSLRLSCAASGSIFPYNAMGWYRQAPGKERELVATISSGGSTNYADSVKGRFTISRDNAKNTVYLQMNSLKPEDTAVYYCATDDFWNVKFYAYYPEFDYWGQGTQVTVSS,low polyreactivity
15,QVQLVESGGGLVQAGGSLRLSCAASGSIFPYVNAMGWYRQAPGKERELVASIPGGGGTKYADSVKGRFTISRDNAKNTVYLQMNSLKPEDTAVYYCNATSGNPASTAWMNYWGQGTQVTVSS,low polyreactivity
16,QVQLVESGGGLVQAGGSLRLSCAASGSIFPYYALGRYRQAPGKERELVADITSSGGSTYYADSVKGRFTISRDNAKNTVYLQMNSLKPEDTAVYYCAALYWFYVYPFTEYDYWGQGTQVTVSS,low polyreactivity
17,QVQLVESGGGLVQAGGSLRLSCAASGSIFPYYAMGWYIQAPGKERELVAVITTSGGRTYYADSVKGRFTISRDNAKNTVYLQMNSLKPEDTAVYYCATDVRQGSGWRYYYWGQGTQVTVSS,high polyreactivity
18,QVQLVESGGGLVQAGGSLRLSCAASGSIFPYYAMGWYRKAPGKERELVAAISSSGGSTTYADSVKGRFTISRDHAKNTVYLQMNSLKPEDTAVYYCAALTYRRSSGGFDYWGQGTQVTVSS,high polyreactivity
19,QVQLVESGGGLVQAGGSLRLSCAASGSIFPYYAMGWYRPAPGKERELVAVISRGGGRTYYADSVKGRFTISRDNAKITVYLQMNSLKPEDTAVYYCYAGYPYGGDYWGQGTQVTVSS,high polyreactivity
20,QVQLVESGGGLVQAGGSLRLSCAASGSIFPYYAMGWYRQAPGKERELVAAITGAGSTNYADSVKGRFTISRDNAKNTVYLQRNSLKPEDTAVYYCAADFGSPDKWRDWYDYWGQGTQVTVSS,low polyreactivity
21,QVQLVESGGGLVQAGGSLRLSCAASGSIFPYYAMGWYRQAPGKERELVASISRSVGSTFYADSVKGRFTISRDNAKNTVYLQMNSLKPEDTAVYYCAVRYFAQFGDYDYWGQGTQVTVSS,high polyreactivity
22,QVQLVESGGGLVQAGGSLRLSCAASGSIFPYYAMGWYRQAPGKERELVATITYRGGSTNYADSVKGRFTISRDNAKNTVYLQMNSLNPEDTAVYYCAAYGYVLASPYPYSFVKLGYWGQGTQVTVSS,low polyreactivity

row,Sequence,polyreactivity (PSR sort gate)
1,QVQLVESGGGLVQAGGSLRLSCAASGSIFPYYAMGWYRQATGKERELVATITSRGGSTYYADSVKGRFTISRDNAKNTVYLQMNSLIPEDTAVYNCAKEYRYYRRRYDYWGQGTQVTVSS,high polyreactivity
2,QVQLVESGGGLVQAGGSLRLSCAASGSIFPYYTMGWYRQAPGKERELVAAITTSDSSTYYADSVKGRFTISRDNAKNTVYLQMNSLKPEDTAVYYCAARYSLYPYYAYDDAYRLYRLRGRDYWGQGTQVTVSS,low polyreactivity
3,QVQLVESGGGLVQAGGSLRLSCAASGSIFQAYAMGWYRQAPGKERELVAAITASGTRTYYADSVKGRFTISRDNAQNTVYLQMNSLKPEDTAVYYCAAGTYRWGFGVRSAMDYWGQGTQVTVSS,high polyreactivity
4,QVQLVESGGGLVQAGGSLRLSCAASGSIFQAYAMGWYRQAPGKERELVASISQSGDSTYYADSVKGRFTISRDNAKNTVYLQMNSLKPEDTAVYYCAAVQYGHRRGRVSVRRRLDYWGQGTQVTVSS,low polyreactivity
5,QVQLVESGGGLVQAGGSLRLSCAASGSIFQENAMGWYRQAPGKERELVAAINTGSITSYADSVKGRFTISRDNAKNTVYLQMNSLKPEDTAVYYCAADSFSLYDSWGQGTQVTVSS,low polyreactivity
6,QVQLVESGGGLVQAGGSLRLSCAASGSIFQFYAMGWYRQAPGKERELVAVITTSGVSTYYADSVKGRFTISRDNAKNTVYLQMNSLKPEDTAVYYCAADDYYLAGDYWGQGTQVTVSS,low polyreactivity
7,QVQLVESGGGLVQAGGSLRLSCAASGSIFQFYAMGWYRQAPGKERELVAVITTSGVSTYYADSVKGRFTISRDNAMNTVYLQMNSLKPEDTAVYFCAADDYYLAGDYWGQGTQVTVSS,low polyreactivity
8,QVQLVESGGGLVQAGGSLRLSCAASGSIFQHNAMGWYRQAPGKERELVATISESGGSTYYADSVKGRFTISRDNAKNTVYLQMNSLKPEDTAVYYCNTDYDYGWWDLGEFDYWGQGTQVTVSS,low polyreactivity
9,QVQLVESGGGLVQAGGSLRLSCAASGSIFQHYSLGRSRQAPGKERELVAAISYDTTSTYYADSVKGRFTISRDNAKNNVYLQMNSLKPEDTAVYYCNTYPEVYGPFQYDYWGQGTQVTVSS,low polyreactivity
10,QVQLVESGGGLVQAGGSLRLSCAASGSIFQIYAMGWYRQAPGKERELAAAINSGGITKYADSVKGRFTISRDNAKNTVYLQMNSLKPEDTAVYYCAKRYGWPYGRFDYWGQGTQVTVSS,low polyreactivity
11,QVQLVESGGGLVQAGGSLRLSCAASGSIFQRNTIGWYIQAPGKERELVAAISRSGGSTYYADSVKGLFTISRDNAKITVYLQMKSLKPEDTEVYYCAVSGGTSRRYYYWGQGTKVTVSS,high polyreactivity
12,QVQLVESGGGLVQAGGSLRLSCAASGSIFQSYDMGWSRQAPGKERELVAAITRSGGRTYYAASVKGRFTISRDNAKNTVYLQMNSLKPEDTAVYYCAAFGWGYGYWGQGTQVTVSS,high polyreactivity
13,QVQLVESGGGLVQAGGSLRLSCAASGSIFQTYAMGWYRQAPGKERELVAAITSGGGSTYYADSVKGRFTISRDNAKNTVYLQMNSLKPEDTAVYYCNRLYRYLVWPAGEYDYWGQGTQVTVTS,high polyreactivity
14,QVQLVESGGGLVQAGGSLRLSCAASGSIFQVYAMGWYRQAPGKEREFVAAISYSGGGTYYADSVKGRFTISRDNAKNTVYLQMNSLKPEDTAVYYCAADVSGWEYDYWGQGTQVTVSS,low polyreactivity
15,QVQLVESGGGLVQAGGSLRLSCAASGSIFQVYAMGWYRQAPGNESEFVADIDWSGESTYYADSVKGRFTISRDNAKNTVYLQMNSLKPEDTAVYYCAAEDGYVTWDRDYEYWGQGTQVTVSS,low polyreactivity
16,QVQLVESGGGLVQAGGSLRLSCAASGSIFQWYAMGWYRQAPGKERELVAAISFNGGITYYADSVKGRFTISRDIAKNTVYLQMNSLKPEDTAVYYCATLPGWGYAAYEYWGQGTQVTVSS,low polyreactivity
17,QVQLVESGGGLVQAGGSLRLSCAASGSIFQWYAMGWYRQAPGKERELVAAITISGTRTYYADSVKGRFTISRDNAKNTVYLQMNSLKPEDTAVYYCAARYTPRRYYYWGQGTQVTVSS,high polyreactivity
18,QVQLVESGGGLVQAGGSLRLSCAASGSIFQYNAMGWYRQAPGKESELVAVISWSGDTYYADSVKGRFTISRDNAKNTVYLQMNSLKPEDTAVYYCATDVLAWAPNDYWGQGTQVTVSS,low polyreactivity
19,QVQLVESGGGLVQAGGSLRLSCAASGSIFQYNTMGWYRQAPGKERELVAAINWSGVSTYYADSVKGRFTISRDNAKNTVYLQMNSLKPEDTAVYYCNARRYVAGSYIYERGYWGQGTQVTVSS,high polyreactivity
20,QVQLVESGGGLVQAGGSLRLSCAASGSIFRANVMGWYRQAPGKERELVASINSDDNTYYADSVKGRFTISRDNAKNTVYLQMKRLKPEDSAVYYCYSEWGLFYDWTVLHMYLDGYYYWGQGTEVTVSS,low polyreactivity
21,QVQLVESGGGLVQAGGSLRLSCAASGSIFRAYAMGWYRQAPGKERELVATISGSGGSTDYADSVKGRFTISRDTAKNTVYLQMNSLKPEDTAVYYCARDDPASHKRYWHDYWGQGTQVTVSS,low polyreactivity
